Reference: patent publication US20060078550

Molecular target: human prothrombin, P00734

B1: recombinant His-tagged porcine fgl2 protein generated by pfgl2bv infection of insect cells (protein)
chain: MKLKLSNWCWLSSAVLAAYGFLVVANNETEEIKDEAAKDACPVRLESRGKCEEVGGCPYQVNLPPLTLQLPKQFGRIEEVFKEVQNLKEIVNSLKKTCQDCRLQADDNRDPGRNGLLSPGTGAPGEADDSRVRELENEVNKLSSDLKNAKEEIDGLQGRLEKLSLVNMNNIENYVDNKVANLTFAVNSLDGKCSSRCPSQEQIQSRPVQHLIYKDCSEYYTIGKRSSEIYRVTPDPKNSSFEVYCDMETMGGGWTVLQARLDGSTNFTRTWRDYKVGFGNLRREFWLGNDKIHLLTKSKDMILRIDLEDFNGIKLYALYDHFYVANEFLKYRLHIGNYNGTAGDALRFSKHYNHDMKYFTTPDRDNDRYPSGNCGLYYSSGWWFDACLSANLNGKYYNQKYRGVRNGIFWGTWPGISEAQPGGYRSSFKEAKMMIRPKYFKP
In the case of B1, the “thrombin activity (chromogenic substrate Chromozym TH, change in OD 405 nm over time)” value is reported as “A significant level of thrombin activity was generated by pfgl2bv-infected cell lysates in contrast to wild-type baculovirus-infected and uninfected controls”.
